Source: the nanobody polyreactivity screen of Harvey et al. (2022)

Experiment: yeast display, Sf9 membrane polyspecificity reagent, FACS + sequencing; frameworks hold sequencing errors
Outline: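 In a synthetic yeast display library (Saccharomyces cerevisiae BJ5465), nanobody expression was induced with galactose for 36–48 hours. FACS gates were set low and high (top ~1%) using anti-HA fluorescence for expression and streptavidin fluorescence for binding of the Sf9 membrane reagent. Each polyreactivity label is drawn from the gate of origin.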

Sequence | polyreactivity (PSR sort gate)
QVQLVESGGGLVQAGGSLRLRCAASGSNFDTYAMGWYRQAPGKERELDAAINSGGGTNYADSVKGRFTISRDNANNTVYLQMNSLKPEDTAVYYCATDIRREAGGGDFDYWGQATQVTVSS | low polyreactivity
QVQLVESGGGLVQAGGSLRLSSAASGSTFYQYAMGWYRQAPGKERELVAAISWDSGSTYYADSVKGRFTISRDNAKNTVYLQMNSLKPEDTAVYYCAASWYGYYDGYAVEYDYWGQGTQVTVSS | low polyreactivity
QVQLVESGGGLVQAGGSLRLSCAASGSIFTDYTMGWYRQAPGKERELVAAISWIGDSTDYADSVKGRFTISRDNAKNTVYLQMNSLNPEDTAVYYCAKSRAGRYNDYDYWGQGTQVTVSS | low polyreactivity
QVQLVESGGGLVQAGGSLSLSCAASGRIFSTYAMGWYRQAPGKERELVAAITSRGTSTYYADSVKGRFTISRDNAKNTVYLQINSLKPEDSAVYYCAARRERWSSSIVGYWGQGTQVTVSS | high polyreactivity
QVQLEESGGGIVQAGGSLRLSCAASGSTFVLYAMGWYRPAPGKERELVAAITSGGSTYYADSVKGRFTISRDNAKNTVYLQMNSLKPEDTAVYYCAASYWDTEPGYREYDYWGQGTQVTVSS | low polyreactivity
QVQLVESGGGLVQAGGSLRLSCAASGSSFVYNVMGWYRQAPGKERELVAAIRWRGGSTYADSVKGRFTISRDNAKNTVYLQMNSLKPEDTAVYYCAAGIPRYWYAGHYDYWGQGSQVTVSS | low polyreactivity
QVQLVESGGGLVQAGGSLRLSCADSGFTFDYYTMGWYRQAPGKDRELVAAITYSGGITYYADSVKGRFTISRDNAKNTVYLQMNSLKPEDTAVYYCNARYSPRTGRGRHVTYYYWGQGTQVTVSS | high polyreactivity
QVQLVDSGGGLVQAGGSLRLSCAASGRIFAWYAMGWYRQAPGKERELVAAISSGGSTNYADSVKGRFTISRDNAKNTVYLQMNSLKPEDTAVYYCNRYPVRDTGGYWGQGTQVTVSS | low polyreactivity
QVELVESGGGLVQAGGSLRLSCAASGFTFQEYAMGWYRQAPGQETELVAAISTSGDYTYYADSVKGRFTISRDNAKHTVYFQMNSLKPEDTAVYYCATGVDTYSLTVEHDSWGQGTQLTVSS | low polyreactivity
QVQLVESGGGLVQAGGSLRLSCAASGRIFYRYARGWYRQAPGKERELVAAITSGTSTNYADSVKGRFTFSRDNAKNTVYLQMNSLKPEDTAVYYCAKRYYCKYAEYDYWGQGTQVTVSS | high polyreactivity
QVQLVESVGGVVQAGGSLRLSCAASGRIFDRNAKGWYSQAPGKERELVAAITSGGSTNYADSVKGRFTISRDNAKNTVYLQMNSLKPEDTAVYYCANDFTSRYAPPEAYDYWGQGTQVTVSS | low polyreactivity
QVQLVESGGGLVQAGGSLRLSCAASGRIFYSYAMGWYREAPGKERELVARITRGSSTYYADSVKGRFTISRDNAKNTVYLQMNSLKPEDTAVYYCAKSRYTALTNHWSHDYWGQGTQVTVSS | low polyreactivity
QVQLVESGGGLVQAGGSLRLSCAASGSIFYDNGMGWYRQAPGKERELVAAISRGGTTNYADSVKGRFTISRDKAKNTVYLQMNSLKPEDTAVYYCNAETRFTYWGSWYDYWGQGTQVTVSS | low polyreactivity
QVQLVESGGGLVQAGGSLRLSCAASGIIFRSYTMGWYRQAPGKERELVASITRSGGITYYADSVKGRFTISRDNAKNTVYLQMNSLKPEDTAVYYCAARHRYYYQYRSDYWGQGTQVTVSS | high polyreactivity
QVQLVESGGGLVQAGGSLRLSCAASGRIFRYYAMGWYRQAPWKERELVAVINWSGGSTYYADSVKGRFTISRDNAKNTVYLLMNSLKPEDTAVYYCNVYSVYPQFNYWGQGTQVTVSS | high polyreactivity
QVQLVESGGGLVQAGGSLRLSCAASGLIFFPKAMGGYRPAPGKERELVAYITWSGGGTNYSDSVKGRFTISRDNAKNTVYLQMNSLKPEDTAVYYCNADGTRDYFSLITGSYSVTYDYWGQGTQVTVSS | high polyreactivity
QVQLVESGGGLVQAGGSLRLSCAASGSILGQYTMGWYRQAPGKERELVAGISSGGSTNYADSVKGRFTISRDNAKNTVYLQMNSLKPEDTAVYYCNKDGAFHWVGSDPVYLFEYWGQGTQVTVSS | low polyreactivity
QVHLVESGGGLLQAGGSLRLSCAASGTIYGVYAMGWYRQAPEKEGELVAAISWTDGTTYYADSVKGRFTISRDNAKNTVYLQINSLKPEDTAVYYCAAEADVPPYLFGYWGQGTQVTVSS | high polyreactivity
QVQLVESGGCLVQAGGSLRLSCAASAFIFVGNDMGLYRQAPGKEREFVAAISSGGTTNYADSVKGRFTISRDNAKNTVYLQMNSLKPEDTAVYYCGADYDYRQGYDSVHLDYWVQGTQVTVSS | low polyreactivity
QVQLVESGGGLVQAGGSLRLSCAASGSIFYAYAMGWSRQAPGKERELVATISSVGSTYYADSVKGRFTISRDNAKNTVYLQMNSLKPEDTAVYYCAKPRIVVYKTGYDYWGQGTQVTVSS | low polyreactivity
QVQLVESGGGLVQAGGSLRLSCAPSGSIFPSYAMGWYRQAPGKERELVAAISRSAGSTYYADSVKGRFTISRDNAKNTVYLQMNSLKPEDTAVYYCAADGYSSRYGYDYWGQGTQVTVSS | low polyreactivity
QVQLVESGGGLVQAGGSLRLSCAASGSIIWLYAMGWYRQAPGKERELVAAISSGGSTYYADSVKGRFTISRDNAKNTVYLQMNSLKPEDTAVYYCAADYWSQSDWWDLTEYEYWGQGTQVTVSS | high polyreactivity

Sequence | polyreactivity (PSR sort gate)
QVQLQESGGGLEKACGSLRLSCAASVNISPRDAMCWYRQAPGEERDLVASNAYSAITYYADGVKGRYTISRDNAKNTVYLHMNSLKPEDTEVYYCAVYQFPYPVFPAYCGQGTQVTVSS | low polyreactivity
QVQLVESGGGLVQAGGSLRLSCAASGSTDSNAMGWYRQAPGKERELVAAISGTGSRTYYADSVKGRFTISRDNAKNTVYLQMNSLKPEDTAVYYCAAYSGYYRPRYNYWGQGTQVTVSS | high polyreactivity
QVQLVDSGGGLVQAGGSLRLSCAASGITFRGYAMGWYRQSPGKERELVATITSSGGSTYYADSVKGRFTISRDNAKNTVYLQMNSLKPEDTAVYYCAAVPYTRYSSSRGYWGQGTQVTVSS | high polyreactivity
QVQLVESGGGLVQAGGSLRLSCAASGIIFDGYAMGWYRQAPGKEREFVAAITSGGGSTSYADSVKGRFTISRDNAKNTVYLQMNSLKPEDTAVYYCAARSNRFYVRQRYAYWGQGTQLTVSS | high polyreactivity
QVQLVESGGGLVQAGGSLRLSCAASGRTFNRYGMGWYRQAPGKERELVASITSGGSTNYADSVKGRFTISRDNAKNSVYLQMNSLKPEDTAVYYCAKRSIGRYPRTYDYWGQGTQVTVSS | low polyreactivity
QVQLVESGGGLVQAGGSLRLSCAASGSTFTQYVMGWYRQAPGKERELVAAISDSGSTYYADSVKGRFTISRDNAKNTVYLQMNSLKPEDTAVYYCNADDVDFYYGYGYLEYDYWGQGTQVTVSS | low polyreactivity
QVQLVESGGGLVQAAGSLRLSCAASGRIFYSYAMGWYRQAPGKERELVAASSFSVGSTYYADSVKGRFTISRDNAKNTVYLQMNSLKPEDTAVYYCAASLGFPGYEYWGQGTQVTVSS | low polyreactivity
QVQLVESGGGLVQAGGSLRLSCAASGFIFYYYAMGWYRQAPGKEREMFAAITQGGGSTYYADSVKGRFTISRDNAKNTVYFQMNSLKPEDTAVYYCAAVKRVYAHCRAFSSDFYYWGQGTQVNVSS | high polyreactivity
QFQLQESGGGLVQAGGTLRLSCAASGSIFYVYGKGWYRQAPGKERELVAGINAGTNTNYADSVRGRFTISRDNAKNTVHLQMNSQKPVDTAVYYCAADGNGYQAHEYWGQGTQVTVSS | high polyreactivity
QVQLVESGGGLVQAGGSLRLSCAAYGRIFSAYVMGWYRQAPGKERELVAAISSTGSTYYADSAKGRFTISRDNAKNTVYLQMNSLKPEDTAVYYCAKRFFQQGYYYWGQGTQVTVSS | low polyreactivity
QVQLVESGGGLVQAGGSLRLSCAASGRTFKKYAMGWYRQAPGKEREMVAAITGSGGSTYYADSVKRRFTISRDNAKNTVYLQMNSLKPEDTAVYYCAAYAYGVWHSQDGGNYWGQGTQVTVSS | low polyreactivity
QVQLVESGGGLVQAGGSLRLSCAASGSIFLLYAMGWYRQAPGKERELVARISWSGDNTRYADSVKGRFTISRDNAKNTVFLQMNSLKPEDTAVYYCNAYYFYGQWKGYDYWGQGTQVTVSS | low polyreactivity
KVQLVESRGGLVQAGGSLRLSCAASGIIFYTYAMGWNRQAPGKERELVASISWDVDSTNYADSVKGRFTISRDNAKNTVYLQMNSLKPEYTAVYYCAVDYTFDSYWYWVDYYEYGYWGQGTQVTVSS | high polyreactivity
QVQLVESGGGLVQAGGSLRLSCAASGSIFWYNAMGWYRQAPGKEREFVATITNGTTTNYADSVKGRFTISCDNAKNTVYLQMNSLKPEDTAVYFCAVTGVYVKYDYWGQGTHVTVSS | low polyreactivity
QVQLVESGGGLVQAGGSLRLICDASGRIFRSYAMGWYRQAPGKERELVAAINWRGGSTFYADSVKGRFTISRDNAKNTVYLQMNSLKPEDTAVYYCARRGYRQSGDYWGQGTQVTVSS | low polyreactivity
QVQLVESGGGLVQAGGSLRLSCAASGSIFGVNMGWYRQAPGKERELVASITSGGSTNYADSVKGRFTISRDNAKNTVYLQMNSLKPEDTAVYYCATDRYVWGQGTQVTVSS | low polyreactivity
QVQLVESGGGLVQAGGSLRLSCAASGYTFGFYALGWYRQAPGKERELVAAITVSGGSTYYADSVKGRFTISRDNAKNTVYLQMNSLKPEDTAVYYCAAEVWFYSTFLYDYWGQGTQVTVSS | high polyreactivity
QVQLVESGGGLVQAGGSLRLSCAASGYIFGQNHMGWYRQAPGKERELVAAISSDGSTYYADSVKGRFTISRDNAKNTVYLQMNSLKQEDTAVYYCKYYHQRFPYRQVYYWGQGTQVTVSS | low polyreactivity
QVQLVESGGGLVQAGGSLRLSCAASGFIFYQYAKGWYRQAPGKERELVATISFRGGRTYYADSVKGRFTITRDTAKNTVYLQMNSLKPDETAVYYCNAKRVSSRFYKWDYYWGQGTQVTVSS | high polyreactivity
QVQLVESGGGLVQAGGSLRLSCAASGSTYVYYAMGWYRQAPGKERELVAAISSSGGSTYYADSVKGRFTISRDNAKNTVYLQMNILKPEDTAVYYCNRYSSYIPYPYNYWGQGTQVTVSS | high polyreactivity
QVQLVESGGGLVQAGGSLRLSCAASGSTFLGYVMGWSRQAPGKERELVAAITRSGGRTYYADSVKGRFTISRDNAKNTVYLQMTSLNPEDTAVYYCAALRGPSFHGYGYWGQGTQVTVSS | high polyreactivity
